{"source": "paper doi:10.1101/2020.07.23.218024", "test_in_all_cases": "ELISA", "key": {"[1]": {"molecular_target": "microtubules / purified porcine brain tubulin (porcine)"}, "[2]": {"molecular_target": "microtubules / purified porcine brain tubulin (porcine)", "remark": "listed apart in the source"}, "GST-PEX14-NTD (human)": {"molecular_target": "GST-PEX14-NTD (human) (UniProt O75381)", "sequence (O75381 1-80)": "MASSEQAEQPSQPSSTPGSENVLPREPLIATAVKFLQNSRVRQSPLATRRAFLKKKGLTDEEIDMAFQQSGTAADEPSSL"}}, "note": "Like-named read-outs stand apart in the source and are kept apart here.", "data": [{"substance": "GST-PEX14-NTD (from UniProt O75381 1-80) (domain or fragment)", "values": [{"measurement": "Kd", "setting": "[1]", "result": "0.7 to 2.3", "unit": "nM"}, {"measurement": "Kd", "setting": "[2]", "result": 2.1, "unit": "nM"}]}, {"substance": "His-PEX14-NTD (from UniProt O75381 1-80) (domain or fragment)", "values": [{"measurement": "fold weaker affinity than GST-PEX14-NTD/MT", "setting": "[2]", "result": "> 100", "unit": "fold"}]}, {"substance": "full-length His6-TEV-PEX5S (from UniProt P50542-2 1-602) (natural protein)", "values": [{"measurement": "IC50", "setting": "GST-PEX14-NTD (human)", "result": 1200, "unit": "nM"}]}, {"substance": "monomeric His-tagged Kif5B kinesin motor domain (domain or fragment)", "values": [{"measurement": "Kd", "setting": "[2]", "result": 56.6, "unit": "nM"}]}]}
